Laboratory results as given in article PMC9482650, “Quantitative fragmentomics allow affinity mapping of interactomes” (Nature Communications, 2022).

T1: LIN7A, O14910
T1 sequence (O14910 103-200, limits assumed, looked up): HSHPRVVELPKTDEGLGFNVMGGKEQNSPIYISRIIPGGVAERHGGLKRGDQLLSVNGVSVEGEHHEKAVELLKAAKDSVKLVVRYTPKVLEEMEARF

T2: PCLO, Q9Y6V0
T2 sequence (Q9Y6V0 4491-4600, limits assumed, looked up): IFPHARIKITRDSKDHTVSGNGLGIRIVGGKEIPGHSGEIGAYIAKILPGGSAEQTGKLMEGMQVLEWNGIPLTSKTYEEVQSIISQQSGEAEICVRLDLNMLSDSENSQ

T3: NHERF3_4, Q5T2W1
T3 sequence (Q5T2W1 373-468, limits assumed, looked up): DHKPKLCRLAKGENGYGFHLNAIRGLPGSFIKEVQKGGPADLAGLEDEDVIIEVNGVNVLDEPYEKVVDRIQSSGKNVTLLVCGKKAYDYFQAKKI

T4: DLG3_1, Q92796
T4 sequence (Q92796 125-227, limits assumed, looked up): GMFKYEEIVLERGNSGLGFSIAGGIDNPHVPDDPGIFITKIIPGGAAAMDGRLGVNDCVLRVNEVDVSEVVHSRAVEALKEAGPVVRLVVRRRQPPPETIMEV

T5: MPP6, Q9NZW5
T5 sequence (Q9NZW5 125-219, limits assumed, looked up): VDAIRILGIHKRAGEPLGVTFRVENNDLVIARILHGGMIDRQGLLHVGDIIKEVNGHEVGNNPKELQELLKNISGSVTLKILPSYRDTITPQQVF

T6: SNTA1, Q13424
T6 sequence (Q13424 82-180, limits assumed, looked up): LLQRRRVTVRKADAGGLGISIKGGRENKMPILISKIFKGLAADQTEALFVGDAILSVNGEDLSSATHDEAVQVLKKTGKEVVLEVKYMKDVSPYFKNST

T7: SIPA1L2, Q9P2F8
T7 sequence (Q9P2F8 945-1036, limits assumed, looked up): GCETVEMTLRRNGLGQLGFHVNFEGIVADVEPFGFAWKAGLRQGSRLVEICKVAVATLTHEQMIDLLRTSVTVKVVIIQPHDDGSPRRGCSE

T8: MPDZ_5, O75970
T8 sequence (O75970 695-796, limits assumed, looked up): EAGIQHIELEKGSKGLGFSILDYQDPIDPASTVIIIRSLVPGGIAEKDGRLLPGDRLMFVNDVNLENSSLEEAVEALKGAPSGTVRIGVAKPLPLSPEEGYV

T9: NHERF3_1, Q5T2W1
T9 sequence (Q5T2W1 4-100, limits assumed, looked up): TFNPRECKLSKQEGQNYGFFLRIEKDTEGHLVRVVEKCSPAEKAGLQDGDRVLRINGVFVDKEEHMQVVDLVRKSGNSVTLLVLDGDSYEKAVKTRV

T10: DFNB31_3, Q9P202
T10 sequence (Q9P202 811-907, limits assumed, looked up): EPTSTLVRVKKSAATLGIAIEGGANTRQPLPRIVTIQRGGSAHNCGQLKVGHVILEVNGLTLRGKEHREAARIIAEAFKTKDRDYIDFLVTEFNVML

T11: PDZD2_2, O15018
T11 sequence (O15018 329-429, limits assumed, looked up): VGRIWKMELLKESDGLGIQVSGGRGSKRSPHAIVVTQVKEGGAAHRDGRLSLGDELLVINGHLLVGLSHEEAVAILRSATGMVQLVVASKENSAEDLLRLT

B1: HDAC7, Q8WUI4 (peptide)
chain: LVEEEEPMNL
B2: GAS2L2, Q8NHY3 (peptide)
chain: PLPPEEESWV

target: HTRA2, O43464; assay: holdup assay; set-up: key: below the threshold = too weak to quantify, mostly under pKd 3.1 to 4; details: plain residues with an end cap or a label only (N-terminal biotin on a linker: ado-ado)
Sequence (O43464 355-458): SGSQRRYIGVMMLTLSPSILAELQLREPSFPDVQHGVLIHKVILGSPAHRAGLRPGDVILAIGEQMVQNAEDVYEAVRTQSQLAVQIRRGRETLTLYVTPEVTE

Row | Binder | pKd
1 | B1 | below the threshold
2 | B2 | 3.96

target: T1, LIN7A, O14910; assay: holdup assay; set-up: key: below the threshold = too weak to quantify, mostly under pKd 3.1 to 4; details: plain residues with an end cap or a label only (N-terminal biotin on a linker: ado-ado)

Row | Binder | pKd
3 | B1 | below the threshold
4 | B2 | below the threshold

target: T2, PCLO, Q9Y6V0; assay: holdup assay; set-up: key: below the threshold = too weak to quantify, mostly under pKd 3.1 to 4; details: plain residues with an end cap or a label only (N-terminal biotin on a linker: ado-ado)

Row | Binder | pKd
5 | B1 | below the threshold
6 | B2 | below the threshold

target: T3, NHERF3_4, Q5T2W1; assay: holdup assay; set-up: key: below the threshold = too weak to quantify, mostly under pKd 3.1 to 4; details: plain residues with an end cap or a label only (N-terminal biotin on a linker: ado-ado)

Row | Binder | pKd
7 | B1 | below the threshold
8 | B2 | below the threshold

target: GOPC, Q9HD26; assay: holdup assay; set-up: key: below the threshold = too weak to quantify, mostly under pKd 3.1 to 4; details: plain residues with an end cap or a label only (N-terminal biotin on a linker: ado-ado)

Row | Binder | pKd
9 | B1 | below the threshold
10 | B2 | below the threshold

target: T4, DLG3_1, Q92796; assay: holdup assay; set-up: key: below the threshold = too weak to quantify, mostly under pKd 3.1 to 4; details: plain residues with an end cap or a label only (N-terminal biotin on a linker: ado-ado)

Row | Binder | pKd
11 | B1 | below the threshold
12 | B2 | 4.01

target: T5, MPP6, Q9NZW5; assay: holdup assay; set-up: key: below the threshold = too weak to quantify, mostly under pKd 3.1 to 4; details: plain residues with an end cap or a label only (N-terminal biotin on a linker: ado-ado)

Row | Binder | pKd
13 | B1 | 3.57
14 | B2 | below the threshold

target: CASK, O14936; assay: holdup assay; set-up: key: below the threshold = too weak to quantify, mostly under pKd 3.1 to 4; details: plain residues with an end cap or a label only (N-terminal biotin on a linker: ado-ado)
Sequence (O14936 487-570): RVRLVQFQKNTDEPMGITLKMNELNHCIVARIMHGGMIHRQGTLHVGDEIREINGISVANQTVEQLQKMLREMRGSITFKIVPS

Row | Binder | pKd
15 | B1 | below the threshold
16 | B2 | below the threshold

target: T6, SNTA1, Q13424; assay: holdup assay; set-up: key: below the threshold = too weak to quantify, mostly under pKd 3.1 to 4; details: plain residues with an end cap or a label only (N-terminal biotin on a linker: ado-ado)

Row | Binder | pKd
17 | B1 | below the threshold
18 | B2 | 4.6

target: DLG1_2, Q12959; assay: holdup assay; set-up: key: below the threshold = too weak to quantify, mostly under pKd 3.1 to 4; details: plain residues with an end cap or a label only (N-terminal biotin on a linker: ado-ado)

Row | Binder | pKd
19 | B1 | below the threshold
20 | B2 | 4.67

target: FRMPD3, Q5JV73; assay: holdup assay; set-up: key: below the threshold = too weak to quantify, mostly under pKd 3.1 to 4; details: plain residues with an end cap or a label only (N-terminal biotin on a linker: ado-ado)
Sequence (Q5JV73 12-100): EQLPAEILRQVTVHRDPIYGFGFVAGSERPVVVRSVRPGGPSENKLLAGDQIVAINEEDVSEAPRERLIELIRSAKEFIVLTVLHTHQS

Row | Binder | pKd
21 | B1 | below the threshold
22 | B2 | 3.72

target: T7, SIPA1L2, Q9P2F8; assay: holdup assay; set-up: key: below the threshold = too weak to quantify, mostly under pKd 3.1 to 4; details: plain residues with an end cap or a label only (N-terminal biotin on a linker: ado-ado)

Row | Binder | pKd
23 | B1 | below the threshold
24 | B2 | below the threshold

target: T8, MPDZ_5, O75970; assay: holdup assay; set-up: key: below the threshold = too weak to quantify, mostly under pKd 3.1 to 4; details: plain residues with an end cap or a label only (N-terminal biotin on a linker: ado-ado)

Row | Binder | pKd
25 | B1 | below the threshold
26 | B2 | 3.79

target: T9, NHERF3_1, Q5T2W1; assay: holdup assay; set-up: key: below the threshold = too weak to quantify, mostly under pKd 3.1 to 4; details: plain residues with an end cap or a label only (N-terminal biotin on a linker: ado-ado)

Row | Binder | pKd
27 | B1 | below the threshold
28 | B2 | 4.86

target: DLG1_1, Q12959; assay: holdup assay; set-up: key: below the threshold = too weak to quantify, mostly under pKd 3.1 to 4; details: plain residues with an end cap or a label only (N-terminal biotin on a linker: ado-ado)

Row | Binder | pKd
29 | B1 | below the threshold
30 | B2 | 4.25

target: NHERF2_2, Q15599; assay: holdup assay; set-up: key: below the threshold = too weak to quantify, mostly under pKd 3.1 to 4; details: plain residues with an end cap or a label only (N-terminal biotin on a linker: ado-ado)
Sequence (Q15599 142-238): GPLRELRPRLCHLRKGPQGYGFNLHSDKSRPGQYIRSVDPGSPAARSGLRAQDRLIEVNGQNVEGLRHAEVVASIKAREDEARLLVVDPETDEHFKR

Row | Binder | pKd
31 | B1 | 3.5
32 | B2 | 4.62

target: IL16_3, Q14005; assay: holdup assay; set-up: key: below the threshold = too weak to quantify, mostly under pKd 3.1 to 4; details: plain residues with an end cap or a label only (N-terminal biotin on a linker: ado-ado)
Sequence (Q14005 1107-1207): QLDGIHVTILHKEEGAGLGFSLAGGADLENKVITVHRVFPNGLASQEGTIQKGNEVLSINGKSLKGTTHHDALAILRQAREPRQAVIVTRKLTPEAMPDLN

Row | Binder | pKd
33 | B1 | below the threshold
34 | B2 | below the threshold

target: FRMPD2_3, Q68DX3; assay: holdup assay; set-up: key: below the threshold = too weak to quantify, mostly under pKd 3.1 to 4; details: plain residues with an end cap or a label only (N-terminal biotin on a linker: ado-ado)
Sequence (Q68DX3 1073-1166): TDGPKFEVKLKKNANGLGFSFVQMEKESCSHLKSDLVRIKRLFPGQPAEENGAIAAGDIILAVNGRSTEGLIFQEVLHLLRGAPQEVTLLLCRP

Row | Binder | pKd
35 | B1 | below the threshold
36 | B2 | 4.04

target: DLG1_3, Q12959; assay: holdup assay; set-up: key: below the threshold = too weak to quantify, mostly under pKd 3.1 to 4; details: plain residues with an end cap or a label only (N-terminal biotin on a linker: ado-ado)

Row | Binder | pKd
37 | B1 | below the threshold
38 | B2 | below the threshold

target: GRIP2_6, Q9C0E4; assay: holdup assay; set-up: key: below the threshold = too weak to quantify, mostly under pKd 3.1 to 4; details: plain residues with an end cap or a label only (N-terminal biotin on a linker: ado-ado)
Sequence (Q9C0E4 648-740): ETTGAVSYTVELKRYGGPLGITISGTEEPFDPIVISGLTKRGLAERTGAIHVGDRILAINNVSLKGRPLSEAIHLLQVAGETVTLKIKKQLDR

Row | Binder | pKd
39 | B1 | below the threshold
40 | B2 | below the threshold

target: T10, DFNB31_3, Q9P202; assay: holdup assay; set-up: key: below the threshold = too weak to quantify, mostly under pKd 3.1 to 4; details: plain residues with an end cap or a label only (N-terminal biotin on a linker: ado-ado)

Row | Binder | pKd
41 | B1 | 3.94
42 | B2 | 3.99

target: MAGI2_2, Q86UL8; assay: holdup assay; set-up: key: below the threshold = too weak to quantify, mostly under pKd 3.1 to 4; details: plain residues with an end cap or a label only (N-terminal biotin on a linker: ado-ado)
Sequence (Q86UL8 410-522): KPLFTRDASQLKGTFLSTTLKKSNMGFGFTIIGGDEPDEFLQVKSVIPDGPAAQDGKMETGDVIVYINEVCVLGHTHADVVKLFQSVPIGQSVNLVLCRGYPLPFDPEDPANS

Row | Binder | pKd
43 | B1 | below the threshold
44 | B2 | below the threshold

target: MAST1, Q9Y2H9; assay: holdup assay; set-up: key: below the threshold = too weak to quantify, mostly under pKd 3.1 to 4; details: plain residues with an end cap or a label only (N-terminal biotin on a linker: ado-ado)
Sequence (Q9Y2H9 962-1065): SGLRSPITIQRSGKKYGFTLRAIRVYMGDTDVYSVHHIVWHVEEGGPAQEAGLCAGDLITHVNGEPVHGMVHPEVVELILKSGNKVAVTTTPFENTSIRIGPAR

Row | Binder | pKd
45 | B1 | 3.61
46 | B2 | below the threshold

target: GRASP, Q7Z6J2; assay: holdup assay; set-up: key: below the threshold = too weak to quantify, mostly under pKd 3.1 to 4; details: plain residues with an end cap or a label only (N-terminal biotin on a linker: ado-ado)
Sequence (Q7Z6J2 96-193): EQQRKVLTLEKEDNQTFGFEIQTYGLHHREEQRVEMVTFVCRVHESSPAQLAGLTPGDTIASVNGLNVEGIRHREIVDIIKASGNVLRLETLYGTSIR

Row | Binder | pKd
47 | B1 | below the threshold
48 | B2 | 4.23

target: GRID2IP_2, A4D2P6; assay: holdup assay; set-up: key: below the threshold = too weak to quantify, mostly under pKd 3.1 to 4; details: plain residues with an end cap or a label only (N-terminal biotin on a linker: ado-ado)
Sequence (A4D2P6 272-370): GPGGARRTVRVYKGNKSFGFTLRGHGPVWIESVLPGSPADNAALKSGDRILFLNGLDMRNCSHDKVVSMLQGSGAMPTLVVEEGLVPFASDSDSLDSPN

Row | Binder | pKd
49 | B1 | below the threshold
50 | B2 | 4.06

target: T11, PDZD2_2, O15018; assay: holdup assay; set-up: key: below the threshold = too weak to quantify, mostly under pKd 3.1 to 4; details: plain residues with an end cap or a label only (N-terminal biotin on a linker: ado-ado)

Row | Binder | pKd
51 | B1 | below the threshold
52 | B2 | 6.13

target: GRIP2_5, Q9C0E4; assay: holdup assay; set-up: key: below the threshold = too weak to quantify, mostly under pKd 3.1 to 4; details: plain residues with an end cap or a label only (N-terminal biotin on a linker: ado-ado)
Sequence (Q9C0E4 544-642): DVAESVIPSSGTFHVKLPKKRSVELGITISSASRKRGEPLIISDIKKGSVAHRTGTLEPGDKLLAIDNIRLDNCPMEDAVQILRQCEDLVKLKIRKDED

Row | Binder | pKd
53 | B1 | below the threshold
54 | B2 | below the threshold
